Usually Kd stands for the free concentration of one partner at which half of the binding sites on the other are occupied at equilibrium, for simple one-to-one binding.

Data on 4 molecules can be found in patent US20130316910A1 (UNIVERSITY OF TOKYO, published 2013).

B1: A-1A (peptide)
peptide: Ac-FPHATIAARADSYDSYVRLAATFL-NH2
notes: by the library design Ala stands where the special amino acid and Cys would be
B2: A-2A (peptide)
peptide: Ac-FPHATIAARADSYDSYVRLVATFR-NH2
B3: A-4A (peptide)
peptide: Ac-FFNRHNNAYYTAGYAALGRLYRLL-NH2
B4: A-5A (peptide)
peptide: Ac-FIIARFSALADSYDASRHIF-NH2

The target in this assay is T1, Bcl-2 protein having His tag on the C terminal side (UniProt P10415 1-211, limits assumed).
T1 construct: Immobilised through its His tag on a Ni-loaded SPR substrate; not shown: C-terminal His tag
T1 sequence (P10415 1-211 limits assumed): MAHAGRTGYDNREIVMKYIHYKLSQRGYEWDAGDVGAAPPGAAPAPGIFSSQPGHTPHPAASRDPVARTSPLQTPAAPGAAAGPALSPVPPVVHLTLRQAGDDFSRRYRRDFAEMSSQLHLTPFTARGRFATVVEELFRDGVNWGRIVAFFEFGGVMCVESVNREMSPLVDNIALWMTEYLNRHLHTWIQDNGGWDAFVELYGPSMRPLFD
In words: SPR, His-tagged Bcl-2 immobilised on Ni substrate, peptide in solution. How it is done:
Next, a crosslinked peptide having the amino acid sequence as shown in the above table was synthesized by using a Fmoc solid-phase method and its binding ability was evaluated by calculating a dissociation constant (KD) in accordance with an evaluation method using SPR (Surface Plasmon Resonance).
Described specifically, first, a solution containing NiCl₂ was applied on a substrate to which Ni could be bound and then Bcl-2 protein having His tag on the C terminal side thereof was applied to immobilize the protein on the substrate. Then, a solution containing a solid-phase synthesized peptide was added successively while appropriately changing the concentration. During addition, a change in refractive index depending on the weight on the substrate was read and bond strength was evaluated based on the binding rate and dissociation rate of the peptide calculated.
B1 showed a Kd of 15 nM.
For B2, the affinity, expressed as Kd, was 3.6 nM.
In the case of B3, the Kd is ~14 nM.
B4 displayed a dissociation constant Kd of 0.58 nM.
